Patent publication US20140315185A1, “METHODS AND COMPOSITIONS FOR IMPROVING SPERM FUNCTIONALITY” (ANDROGENIX LTD., priority 2011, published 2014)

Tests used:
sperm = conditions: added in sufficient concentration and simultaneously with the H2O2; cited from earlier work
Jurkat cells = experiment: Catalase activity assay of treated Jurkat cells; format: cell-based, human; conditions: units per 2.5×10^6 cells; incubated at 37° C. for 30 min, then centrifuged and resuspended
Procedure: (§1) Recovery of the cholesterol-PEG5000-FITC-catalase was determined by Coomassie staining and catalase activity assay. For the catalase activity assay, 0.5 μl of test samples and serially diluted bovine catalase (Sigma) were placed in a microtitre plate, and incubated with 50 μl of 10 ng/ml of streptavidin-HRP (Biosource) and 50 μl of TMB substrate (Invitrogen) for 5 min. The plate was read at 450 nm on an EnVision plate reader (PerkinElmer) after stopping the reaction with 50 μl of 2 M sulfuric acid. Catalase activity of the test sample was calculated from the standard curve generated with known concentrations of bovine catalase.
Jurkat cells (ATCC, TIB-152; human T lymphocyte cell line) were cultured in RPMI-1640 media with 10% fetal calf serum. For analysis, cells were removed from culture, centrifuged at 700×g for 5 min, the culture media was removed and cells were resuspended at a concentration of 5×10^7 cells/ml in PBS. […] The Jurkat cells were analyzed by both flow cytometry and catalase activity assay.
The catalase activity of the treated Jurkat cells was measured as described in Example 1. 50 μl of 5×10^7 cells/ml of each test sample was analysed in the assay and the catalase activity contained in each of the Jurkat samples was calculated from the standard curve. […]

bovine sperm [1] = experiment: Catalase activity assay of conjugate-bound sperm; format: cell-based; conditions: in 2.5×10^6 sperm cells after binding and removal of unbound conjugate
Procedure: as §1
1.5 ml of bovine sperm in liquid extender was carefully placed on top of 4 ml of 60%_Percoll™ PLUS (GE Healthcare) column, and centrifugated for 20 min at 700×g at 20° C. […] The binding of cholesterol-PEG5000-FITC-catalase to sperm was analysed by flow cytometry and catalase activity assay. […] The catalase activity of cholesterol-PEG5000-FITC-catalase bound sperm was measured as described in Example 1. 79 units of catalase activity were measured in 2.5×10^6 sperm cells after binding with cholesterol-PEG5000-FITC-catalase, whereas no catalase activity was detected in control sperm without addition of cholesterol-PEG5000-FITC-catalase.

bovine sperm [2] = experiment: Binding of cholesterol-PEG-catalase to sperm, flow cytometry; format: cell-based; conditions: sperm incubated with 3 mg/ml conjugate at 37° C. for 30 min, unbound removed on Percoll PLUS
Procedure: 1.5 ml of bovine sperm in liquid extender was carefully placed on top of 4 ml of 60%_Percoll™ PLUS (GE Healthcare) column, and centrifugated for 20 min at 700×g at 20° C. The resulting purified sperm pellet was resuspended in non-capacitating media (NCM; see Table 2) containing 0.1 mg/ml of BSA to a cell concentration of 5×10^7 ml. 200 μl of the purified sperm was mixed with an equal volume of 3 mg/ml cholesterol-PEG5000-FITC-catalase, and incubated light protected at 37° C. for 30 min. The unbound cholesterol-PEG5000-FITC-catalase was removed by layering 400 μl of sperm/cholesterol-PEG5000-FITC-catalase mixture on the top of 500 μl of 60% Percoll™ PLUS column, followed by centrifugation for 20 min at 700×g at 20° C. The sperm pellet was resuspended in NCM containing 0.1 mg/ml of BSA to a total volume of 400 μl. The binding of cholesterol-PEG5000-FITC-catalase to sperm was analysed by flow cytometry and catalase activity assay. […] The catalase activity of cholesterol-PEG5000-FITC-catalase bound sperm was measured as described in Example 1. 79 units of catalase activity were measured in 2.5×10^6 sperm cells after binding with cholesterol-PEG5000-FITC-catalase, whereas no catalase activity was detected in control sperm without addition of cholesterol-PEG5000-FITC-catalase.

| binding to live sperm (Hoechst 33258 negative) (bovine sperm [2]) | Molecule | rescue of H2O2-induced loss of motility (sperm) | catalase activity in Jurkat cells (Jurkat cells) | catalase activity of bound sperm (bovine sperm [1]) |
| --- | --- | --- | --- | --- |
|  | N[C@@H](CCC(=O)N[C@@H](CS)C(=O)NCC(=O)O)C(=O)O [glutathione, reference compound] | able to rescue the loss of motility |  |  |
|  | catalase: Bovine catalase (Sigma), used alone without the cholesterol-PEG5000-FITC linker; antioxidant enzyme (protein, listed as Bos taurus) MADNRDPASDQMKHWKEQRAAQKPDVLTTGGGNPVGDKLNSLTVGPRGPLLVQDVVFTDEMAHFDRERIPERVVHAKGAGAFGYFEVTHDITRYSKAKVFEHIGKRTPIAVRFSTVAGESGSADTVRDPRGFAVKFYTEDGNWDLVGNNTPIFFIRDALLFPSFIHSQKRNPQTHLKDPDMVWDFWSLRPESLHQVSFLFSDRGIPDGHRHMNGYGSHTFKLVNANGEAVYCKFHYKTDQGIKNLSVEDAARLAHEDPDYGLRDLFNAIATGNYPSWTLYIQVMTFSEAEIFPFNPFDLTKVWPHGDYPLIPVGKLVLNRNPVNYFAEVEQLAFDPSNMPPGIEPSPDKMLQGRLFAYPDTHRHRLGPNYLQIPVNCPYRARVANYQRDGPMCMMDNQGGAPNYYPNSFSAPEHQPSALEHRTHFSGDVQRFNSANDDNVTQVRTFYLKVLNEEQRKRLCENIAGHLKDAQLFIQKKAVKNFSDVHPEYGSRIQALLDKYNEEKPKNAVHTYVQHGSHLSAREKANL | able to rescue the loss of motility | 44 U |  |
| approx. 10 fold over background | cholesterol-PEG5000-FITC-catalase: Bovine catalase covalently labelled with cholesterol-PEG5000-NHS-FITC; 4.0 to 5.4 cholesterol-PEG per catalase monomer (conjugate, UniProt P00432 2-527, looked up, cholesterol-PEG5000-FITC label, Bovine catalase covalently labelled with cholesterol-PEG5000-NHS-FITC; 4.0 to 5.4 cholesterol-PEG per catalase monomer) Catalase: ADNRDPASDQMKHWKEQRAAQKPDVLTTGGGNPVGDKLNSLTVGPRGPLLVQDVVFTDEMAHFDRERIPERVVHAKGAGAFGYFEVTHDITRYSKAKVFEHIGKRTPIAVRFSTVAGESGSADTVRDPRGFAVKFYTEDGNWDLVGNNTPIFFIRDALLFPSFIHSQKRNPQTHLKDPDMVWDFWSLRPESLHQVSFLFSDRGIPDGHRHMNGYGSHTFKLVNANGEAVYCKFHYKTDQGIKNLSVEDAARLAHEDPDYGLRDLFNAIATGNYPSWTLYIQVMTFSEAEIFPFNPFDLTKVWPHGDYPLIPVGKLVLNRNPVNYFAEVEQLAFDPSNMPPGIEPSPDKMLQGRLFAYPDTHRHRLGPNYLQIPVNCPYRARVANYQRDGPMCMMDNQGGAPNYYPNSFSAPEHQPSALEHRTHFSGDVQRFNSANDDNVTQVRTFYLKVLNEEQRKRLCENIAGHLKDAQLFIQKKAVKNFSDVHPEYGSRIQALLDKYNEEKPKNAVHTYVQHGSHLSAREKANL |  | 66 U | 79 units |
